From article PMC7920257, “Probing Protein Folding with Sequence-Reversed α-Helical Bundles” (International Journal of Molecular Sciences, 2021)

Legend:
[1] = molecular target: RM6 (UniProt P03051); assay: SAXS; 10 °C, 1–12 mg/mL; molecular mass from I(0) of the Guinier plot against BSA; rRop from the refolding protocol
[2] = molecular target: rRM6; assay: SEC-MALS; 100 uL loaded (wtRop 3 mg/mL, rRop 5.5 mg/mL, rRM6 3.5 mg/mL) on Superdex 75 (wtRop, rRop) or Superdex 200 (rRM6); rRop from the non-refolding protocol
[3] = molecular target: rRM6; assay: SEC; Sephacryl S-200 high-resolution column, 20 °C, 0.5 mL/min, after Ni-NTA; rRop from the refolding protocol gives an asymmetric peak
[4] = molecular target: rRM6; assay: SAXS; 10 °C, 1–12 mg/mL; molecular mass from I(0) of the Guinier plot against BSA; rRop from the refolding protocol
[5] = molecular target: rRop; assay: SEC-MALS; 100 uL loaded (wtRop 3 mg/mL, rRop 5.5 mg/mL, rRM6 3.5 mg/mL) on Superdex 75 (wtRop, rRop) or Superdex 200 (rRM6); rRop from the non-refolding protocol
[6] = molecular target: the molecule itself; assay: as above

Molecule “RM6 (from UniProt P03051 1-63) (natural protein)” has a stoichiometry N [1] of 4.

Work on rRM6 yielded a stoichiometry N [2] of 4, a stoichiometry N [3] of 4 and a stoichiometry N [4] of 4.

Work on rRop yielded a stoichiometry N [5] of 2.

B1: Rop (natural protein)
chain: MTKQEKTALNMARFIRSQTLTLLEKLNELDADEQADICESLHDHADELYRSCLARFGDDGENL
notes: homodimeric 4-alpha-helical bundle; also called wtRop; wild-type Rop
B1 was tested, and the “stoichiometry N” value [6] was 2.
